From patent US20220119489A1, “COMPOSITIONS AND METHODS FOR TREATING MUSCULAR DYSTROPHY AND RELATED DISORDERS” (CHILDREN'S MEDICAL CENTER CORPORATION, priority 2019, published 2022)

T1: CD82 polypeptide (human) (human)
T1 sequence (P27701 whole entry, looked up): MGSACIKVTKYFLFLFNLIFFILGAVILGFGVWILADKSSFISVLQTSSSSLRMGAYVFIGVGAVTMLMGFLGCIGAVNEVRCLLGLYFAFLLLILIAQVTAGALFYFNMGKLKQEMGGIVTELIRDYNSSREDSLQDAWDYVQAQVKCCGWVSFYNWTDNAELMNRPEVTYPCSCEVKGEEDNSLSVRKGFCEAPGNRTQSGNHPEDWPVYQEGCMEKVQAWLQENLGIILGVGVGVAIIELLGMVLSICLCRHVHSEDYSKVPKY

B1: EHD2_HUMAN (protein)
chain: MFSWLKRGGARGQQPEAIRTVTSALKELYRTKLLPLEEHYRFGAFHSPALEDADFDGKPMVLVAGQYSTGKTSFIQYLLEQEVPGSRVGPEPTTDCFVAVMHGDTEGTVPGNALVVDPDKPFRKLNPFGNTFLNRFMCAQLPNQVLESISIIDTPGILSGAKQRVSRGYDFPAVLRWFAERVDLIILLFDAHKLEISDEFSEAIGALRGHEDKIRVVLNKADMVETQQLMRVYGALMWALGKVVGTPEVLRVYIGSFWSQPLLVPDNRRLFELEEQDLFRDIQGLPRHAALRKLNDLVKRARLVRVHAYIISYLKKEMPSVFGKENKKKQLILKLPVIFAKIQLEHHISPGDFPDCQKMQELLMAHDFTKFHSLKPKLLEALDEMLTHDIAKLMPLLRQEELESTEVGVQGGAFEGTHMGPFVERGPDEAMEDGEEGSDDEAEWVVTKDKSKYDEIFYNLAPADGKLSGSKAKTWMVGTKLPNSVLGRIWKLSDVDRDGMLDDEEFALASHLIEAKLEGHGLPANLPRRLVPPSKRRHKGSAE
B2: EHD4_HUMAN (protein)
chain: MFSWMGRQAGGRERAGGADAVQTVTGGLRSLYLRKVLPLEEAYRFHEFHSPALEDADFENKPMILLVGQYSTGKTTFIRYLLEQDFPGMRIGPEPTTDSFIAVMYGETEGSTPGNALVVDPKKPFRKLSRFGNAFLNRFMCSQLPNQVLKSISVIDSPGILSGEKQRISRGYDFCQVLQWFAERVDRIILLFDAHKLDISDEFSEAIKAFRGQDDKIRVVLNKADQVDTQQLMRVYGALMWSLGKVINTPEVLRVYIGSFWAQPLQNTDNRRLFEAEAQDLFRDIQSLPQKAAVRKLNDLIKRARLAKVHAYIISYLKKEMPSVFGKENKKRELISRLPEIYIQLQREYQISAGDFPEVKAMQEQLENYDFTKFHSLKPKLIEAVDNMLSNKISPLMNLISQEETSTPTQLVQGGAFDGTTEGPFNQGYGEGAKEGADEEEWVVAKDKPVYDELFYTLSPINGKISGVNAKKEMVTSKLPNSVLGKIWKLADCDCDGMLDEEEFALAKHLIKIKLDGYELPSSLPPHLVPPSHRKSLPKAD
B3: TGF beta receptor 1 (receptor)
chain: LQCFCHLCTKDNFTCVTDGLCFVSVTETTDKVIHNSMCIAEIDLIPRDRPFVCAPSSKTGSVTTTYCCNQDHCNKIELPTTVKSSPGLGPVELAAVIAGPVCFVCISLMLMVYICHNRTVIHHRVPNEEDPSLDRPFISEGTTLKDLIYDMTTSGSGSGLPLLVQRTIARTIVLQESIGKGRFGEVWRGKWRGEEVAVKIFSSREERSWFREAEIYQTVMLRHENILGFIAADNKDNGTWTQLWLVSDYHEHGSLFDYLNRYTVTVEGMIKLALSTASGLAHLHMEIVGTQGKPAIAHRDLKSKNILVKKNGTCCIADLGLAVRHDSATDTIDIAPNHRVGTKRYMAPEVLDDSINMKHFESFKRADIYAMGLVFWEIARRCSIGGIHEDYQLPYYDLVPSDPSVEEMRKVVCEQKLRPNIPNRWQSCEALRVMAKIMRECWYANGAARLTALRIKKTLSQLSQQEGIKM
B4: Annexin A1 (human) (protein)
chain: AMVSEFLKQAWFIENEEQEYVQTVKSSKGGPGSAVSPYPTFNPSSDVAALHKAIMVKGVDEATIIDILTKRNNAQRQQIKAAYLQETGKPLDETLKKALTGHLEEVVLALLKTPAQFDADELRAAMKGLGTDEDTLIEILASRTNKEIRDINRVYREELKRDLAKDITSDTSGDFRNALLSLAKGDRSEDFGVNEDLADSDARALYEAGERRKGTDVNVFNTILTTRSYPQLRRVFQKYTKYSKHDMNKVLDLELKGDIEKCLTAIVKCATSKPAFFAEKLHQAMKGVGTRHKALIRIMVSRSEIDMNDIKAFYQKMYGISLCQAILDETKGDYEKILVALCGGN
B5: PRDX2_HUMAN (enzyme)
chain: ASGNARIGKPAPDFKATAVVDGAFKEVKLSDYKGKYVVLFFYPLDFTFVCPTEIIAFSNRAEDFRKLGCEVLGVSVDSQFTHLAWINTPRKEGGLGPLNIPLLADVTRRLSEDYGVLKTDEGIAYRGLFIIDGKGVLRQITVNDLPVGRSVDEALRLVQAFQYTDEHGEVCPAGWKPGSDTIKPNVDDSKEYFSKHN
B6: Eh domain containing 1 (protein)
chain: MFSWVSKDARRKKEPELFQTVAEGLRQLYAQKLLPLEEHYRFHEFHSPALEDADFDNKPMVLLVGQYSTGKTTFIRHLIEQDFPGMRIGPEPTTDSFIAVMHGPTEGVVPGNALVVDPRRPFRKLNAFGNAFLNRFMCAQLPNPVLDSISIIDTPGILSGEKQRISRGYDFAAVLEWFAERVDRIILLFDAHKLDISDEFSEVIKALKNHEDKIRVVLNKADQIETQQLMRVYGALMWSLGKIINTPEVVRVYIGSFWSHPLLIPDNRKLFEAEEQDLFKDIQSLPRNAALRKLNDLIKRARLAKVHAYIISSLKKEMPNVFGKESKKKELVNNLGEIYQKIEREHQISPGDFPSLRKMQELLQTQDFSKFQALKPKLLDTVDDMLANDIARLMVMVRQEESLMPSQVVKGGAFDGTMNGPFGHGYGEGAGEGIDDVEWVVGKDKPTYDEIFYTLSPVNGKITGANAKKEMVKSKLPNTVLGKIWKLADVDKDGLLDDEEFALANHLIKVKLEGHELPADLPPHLVPPSKRRHE

These binders were tested against T1, CD82 polypeptide (human) (human) (assay: IP with anti CD82 antibodies, human myotubes, mass spectrometry).

Total, 3:
B1, B2, B3, B4, B5, B6

Unique, 3:
B1, B2, B3, B4, B5, B6
